Data taken from the supplement of paper PMC9112550, “Optimization of the antimicrobial peptide Bac7 by deep mutational scanning” (BMC Biology, 2022).

tested on: Escherichia coli TOP10; experiment: shrunken log2 fold change of peptide-encoding DNA abundance (4.5 h post-induction vs induction); higher = less antimicrobial activity (less host growth inhibition); conditions: time post-induction: 4.5 h; library: site-saturation at positions 5, 18, 19, 20
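Also: peptides expressed intracellularly from a pBAD plasmid library in pooled LB shake-flask culture, induced with 0.3% L-arabinose, DNA abundance read by NGS, three biological replicates, DESeq2 with apeglm shrinkage.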

| Sequence | shrunken log2 fold change |
| --- | --- |
| RRIRTRPPRLPRPRPRPCSIPRP | -0.472 |
| RRIRERPPRLPRPRPRPFMIPRP | -0.768 |
| RRIRMRPPRLPRPRPRPQMFPRP | -0.0181 |
| RRIRMRPPRLPRPRPRPETYPRP | 0.451 |
| RRIRMRPPRLPRPRPRPDRSPRP | -0.178 |
| RRIRDRPPRLPRPRPRPMGFPRP | 0.258 |
| RRIRGRPPRLPRPRPRPEYMPRP | 0.409 |
| RRIRHRPPRLPRPRPRPSGIPRP | -0.0153 |
| RRIRNRPPRLPRPRPRPKNHPRP | -0.19 |
| RRIRSRPPRLPRPRPRPTPAPRP | 0.299 |
| RRIRSRPPRLPRPRPRPGNYPRP | -0.0556 |
| RRIRIRPPRLPRPRPRPHMTPRP | -0.64 |
| RRIRNRPPRLPRPRPRPRTTPRP | -0.0126 |
| RRIRPRPPRLPRPRPRPPLRPRP | 0.336 |
| RRIRNRPPRLPRPRPRPSPHPRP | -0.171 |
| RRIRKRPPRLPRPRPRPIRPPRP | 0.012 |
| RRIRIRPPRLPRPRPRPDQWPRP | 0.0363 |
| RRIRWRPPRLPRPRPRPRPNPRP | 0.273 |
| RRIRKRPPRLPRPRPRPEYQPRP | 0.0313 |
| RRIRMRPPRLPRPRPRPREYPRP | 0.314 |
| RRIRPRPPRLPRPRPRPSMAPRP | -0.0637 |
| RRIRWRPPRLPRPRPRPEKKPRP | 0.0589 |
| RRIRHRPPRLPRPRPRPCYEPRP | -0.185 |
| RRIRTRPPRLPRPRPRPQNLPRP | -0.135 |
| RRIRCRPPRLPRPRPRPETVPRP | 0.448 |

| Sequence | shrunken log2 fold change |
| --- | --- |
| RRIRARPPRLPRPRPRPVCPPRP | 0.139 |
| RRIRDRPPRLPRPRPRPFCTPRP | -0.0992 |
| RRIRERPPRLPRPRPRPWSDPRP | -0.0787 |
| RRIRLRPPRLPRPRPRPGAMPRP | 0.34 |
| RRIRERPPRLPRPRPRPVWIPRP | -0.556 |
| RRIRERPPRLPRPRPRPVSIPRP | -1.57 |
| RRIRNRPPRLPRPRPRPSNSPRP | -0.235 |
| RRIRMRPPRLPRPRPRPKHVPRP | 0.0503 |
| RRIRFRPPRLPRPRPRPKSNPRP | -0.358 |
| RRIRFRPPRLPRPRPRPTYTPRP | -0.719 |
| RRIRMRPPRLPRPRPRPEWGPRP | 0.437 |
| RRIRERPPRLPRPRPRPQPQPRP | -0.0713 |
| RRIRVRPPRLPRPRPRPRCWPRP | 0.294 |
| RRIRWRPPRLPRPRPRPCLCPRP | -0.0914 |
| RRIRPRPPRLPRPRPRPIQNPRP | -0.11 |
| RRIRARPPRLPRPRPRPEDMPRP | 0.816 |
| RRIRCRPPRLPRPRPRPFHVPRP | -0.893 |
| RRIRMRPPRLPRPRPRPECNPRP | 0.0477 |
| RRIRNRPPRLPRPRPRPNHTPRP | -0.773 |
| RRIRLRPPRLPRPRPRPRFIPRP | -0.243 |
| RRIRDRPPRLPRPRPRPFWVPRP | -0.222 |
| RRIRGRPPRLPRPRPRPPTHPRP | 0.617 |
| RRIRYRPPRLPRPRPRPRWCPRP | 0.246 |
| RRIRNRPPRLPRPRPRPVGKPRP | 0.028 |
| RRIRHRPPRLPRPRPRPSNQPRP | -0.616 |

| Sequence | shrunken log2 fold change |
| --- | --- |
| RRIRWRPPRLPRPRPRPIFVPRP | 0.0493 |
| RRIRDRPPRLPRPRPRPCMDPRP | 0.0285 |
| RRIRQRPPRLPRPRPRPRAAPRP | 0.506 |
| RRIRARPPRLPRPRPRPVTGPRP | 0.301 |
| RRIRDRPPRLPRPRPRPKRRPRP | 0.529 |
| RRIRRRPPRLPRPRPRPEWCPRP | 0.17 |
| RRIRGRPPRLPRPRPRPQIVPRP | 0.12 |
| RRIRPRPPRLPRPRPRPFYFPRP | -0.387 |
| RRIRLRPPRLPRPRPRPYGEPRP | -0.0013 |
| RRIRKRPPRLPRPRPRPFNLPRP | -0.0494 |
| RRIRERPPRLPRPRPRPEPGPRP | 0.667 |
| RRIRVRPPRLPRPRPRPVTDPRP | -0.171 |
| RRIRKRPPRLPRPRPRPIYWPRP | 0.165 |
| RRIRNRPPRLPRPRPRPIIIPRP | -0.663 |
| RRIRIRPPRLPRPRPRPERGPRP | 0.183 |
| RRIRKRPPRLPRPRPRPHQVPRP | -0.182 |
| RRIRPRPPRLPRPRPRPRYRPRP | 0.0725 |
| RRIRMRPPRLPRPRPRPQSGPRP | -0.0103 |
| RRIRYRPPRLPRPRPRPMIRPRP | -0.0021 |
| RRIRFRPPRLPRPRPRPAYHPRP | -0.00712 |
| RRIRKRPPRLPRPRPRPHNMPRP | -0.438 |
| RRIRIRPPRLPRPRPRPHFHPRP | -0.424 |
| RRIRMRPPRLPRPRPRPQKPPRP | -0.165 |
| RRIRARPPRLPRPRPRPRRIPRP | -0.0273 |
| RRIRPRPPRLPRPRPRPMDHPRP | 0.0131 |
